From IntAct's records for PubMed 25126958

B1: Cell division control protein 45 (Saccharomyces cerevisiae), Q08032 (parent)
chain: MYYGISQFSEAYNKILRNSSSHSSCQLVIFVSCLNIDALCATKMLSLLFKKQLVQSQIVPIFGYSELRRHYSQLDDNINSLLLVGFGGVIDLEAFLEIDPQEYVIDTDEKSGEQSFRRDIYVLDAHRPWNLDNIFGSQIIQCFDDGTVDDTLGEQKEAYYKLLELDEESGDDELSGDENDNNGGDDEATDADEVTDEDEEDEDETISNKRGNSSIGPNDLSKRKQRKKQIHEYEGVLEEYYSQGTTVVNSISAQIYSLLSAIGETNLSNLWLNILGTTSLDIAYAQVYNRLYPLLQDEVKRLTPSSRNSVKTPDTLTLNIQPDYYLFLLRHSSLYDSFYYSNYVNAKLSLWNENGKKRLHKMFARMGIPLSTAQETWLYMDHSIKRELGIIFDKNLDRYGLQDIIRDGFVRTLGYRGSISASEFVEALTALLEVGNSTDKDSVKINNDNNDDTDGEEEEDNSAQKLTNLRKRWVSNFWLSWDALDDRKVELLNRGIQLAQDLQRAIFNTGVAILEKKLIKHLRIYRLCVLQDGPDLDLYRNPLTLLRLGNWLIECCAESEDKQLLPMVLASIDENTDTYLVAGLTPRYPRGLDTIHTKKPILNNFSMAFQQITAETDAKVRIDNFESSIIEIRREDLSPFLEKLTLSGLL
partner: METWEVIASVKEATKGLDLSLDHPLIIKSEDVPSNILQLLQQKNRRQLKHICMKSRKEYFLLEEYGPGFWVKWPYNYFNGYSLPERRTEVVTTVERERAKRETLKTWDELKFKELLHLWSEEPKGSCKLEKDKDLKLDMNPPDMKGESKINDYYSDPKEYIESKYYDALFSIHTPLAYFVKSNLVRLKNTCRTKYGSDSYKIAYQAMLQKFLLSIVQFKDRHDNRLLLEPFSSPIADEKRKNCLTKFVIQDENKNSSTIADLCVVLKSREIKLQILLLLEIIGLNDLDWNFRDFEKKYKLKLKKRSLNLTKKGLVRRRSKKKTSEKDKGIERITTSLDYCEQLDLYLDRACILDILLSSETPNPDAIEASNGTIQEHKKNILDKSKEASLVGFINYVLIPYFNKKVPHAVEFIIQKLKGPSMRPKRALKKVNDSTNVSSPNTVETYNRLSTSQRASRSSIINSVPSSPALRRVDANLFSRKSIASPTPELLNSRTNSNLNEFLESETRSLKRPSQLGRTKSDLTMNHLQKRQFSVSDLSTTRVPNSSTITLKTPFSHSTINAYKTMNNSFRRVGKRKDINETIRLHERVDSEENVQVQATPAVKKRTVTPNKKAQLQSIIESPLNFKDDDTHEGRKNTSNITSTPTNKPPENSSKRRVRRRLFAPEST

Variants of: B1
Conditions: with sld3_yeast SLD3, P53135

Row | effect of a mutation on the interaction | Variant
1 | disrupting interaction strength | D91N;D124N;D149N;D150N
